Reference: publication PMC8417012, “Characterization of Arabidopsis thaliana R2R3 S23 MYB Transcription Factors as Novel Targets of the Ubiquitin Proteasome-Pathway and Regulators of Salt Stress and Abscisic Acid Response” (Frontiers in Plant Science, 2021)
Blank lines part the entries; values can stand above or below the binder they belong to.

Key:
Assay in all cases: pull-down; His:BPM proteins kept on Ni-NTA agarose beads, incubated with eluted GST-tagged proteins in 0.1 M Tris pH 7.5, 150 mM NaCl, 0.5% NP-40, PMSF, 2 h at 4°C, three washes; blots with anti-GST and anti-His
Details in all cases: both partners purified
His:BPM5 = biological target: T1, His:BPM5 (Arabidopsis thaliana, UniProt Q1EBV6 1-410)
T1 construct: BPM5, MATH-BTB/POZ protein, Arabidopsis thaliana; cloned into pET21b (NdeI/XhoI); pET21b usually adds a C-terminal His6 tag (surmised); also called His-tagged BPM5; source: E. coli, purified on Ni-NTA agarose beads (remained on the beads)
T1 sequence (looked up): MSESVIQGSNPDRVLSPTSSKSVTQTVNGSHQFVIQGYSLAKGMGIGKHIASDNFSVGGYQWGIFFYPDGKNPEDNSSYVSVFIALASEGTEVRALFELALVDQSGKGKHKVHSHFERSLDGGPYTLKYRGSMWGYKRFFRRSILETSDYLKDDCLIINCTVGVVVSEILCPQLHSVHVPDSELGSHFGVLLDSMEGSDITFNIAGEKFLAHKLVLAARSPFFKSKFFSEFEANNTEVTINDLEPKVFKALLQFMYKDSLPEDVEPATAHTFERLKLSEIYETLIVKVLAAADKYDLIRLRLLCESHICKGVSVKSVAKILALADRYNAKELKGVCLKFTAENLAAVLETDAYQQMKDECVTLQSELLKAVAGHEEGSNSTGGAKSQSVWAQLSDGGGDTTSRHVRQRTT

His:BPM3 = biological target: T2, His:BPM3 (Arabidopsis thaliana, UniProt O22286 1-408)
T2 construct: BPM3, MATH-BTB/POZ protein, Arabidopsis thaliana; cloned into pET21b (NdeI/XhoI); pET21b usually adds a C-terminal His6 tag (surmised); also called His-tagged BPM3; source: E. coli, purified on Ni-NTA agarose beads (remained on the beads)
T2 sequence (looked up): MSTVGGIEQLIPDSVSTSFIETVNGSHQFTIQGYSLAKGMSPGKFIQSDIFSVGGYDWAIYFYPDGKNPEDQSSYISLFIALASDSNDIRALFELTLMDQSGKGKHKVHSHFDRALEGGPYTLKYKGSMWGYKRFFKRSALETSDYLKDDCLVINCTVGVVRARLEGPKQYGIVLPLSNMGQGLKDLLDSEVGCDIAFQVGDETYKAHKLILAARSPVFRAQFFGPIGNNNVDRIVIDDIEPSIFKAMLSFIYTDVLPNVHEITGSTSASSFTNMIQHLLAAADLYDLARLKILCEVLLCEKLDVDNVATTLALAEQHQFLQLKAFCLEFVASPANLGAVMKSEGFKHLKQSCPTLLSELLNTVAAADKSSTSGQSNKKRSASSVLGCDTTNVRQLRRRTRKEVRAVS

His:BPM1 = biological target: T3, His:BPM1 (Arabidopsis thaliana, UniProt Q8L765 1-407)
T3 construct: BPM1, MATH-BTB/POZ protein, Arabidopsis thaliana; cloned into pET21b (NdeI/XhoI); pET21b usually adds a C-terminal His6 tag (surmised); also called His-tagged BPM1; source: E. coli, purified on Ni-NTA agarose beads (remained on the beads)
T3 sequence (looked up): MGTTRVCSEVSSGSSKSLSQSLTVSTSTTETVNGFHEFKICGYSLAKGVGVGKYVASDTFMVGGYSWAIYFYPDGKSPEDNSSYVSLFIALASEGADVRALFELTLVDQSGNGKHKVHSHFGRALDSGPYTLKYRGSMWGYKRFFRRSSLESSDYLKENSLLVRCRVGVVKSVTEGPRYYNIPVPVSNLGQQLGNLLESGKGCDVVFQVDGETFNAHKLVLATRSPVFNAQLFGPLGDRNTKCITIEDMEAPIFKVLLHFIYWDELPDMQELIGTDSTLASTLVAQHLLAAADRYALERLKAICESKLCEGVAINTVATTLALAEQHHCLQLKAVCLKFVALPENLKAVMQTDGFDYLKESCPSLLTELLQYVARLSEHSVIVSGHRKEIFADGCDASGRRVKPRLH

binding result (His:BPM5): binds
binding result (His:BPM3): binds
binding result (His:BPM1): binds
B1: GST:MYB25 (natural protein)
chain: not shown
notes: MYB25, Arabidopsis thaliana, At2g39880, 367 AA; cDNA in pDEST15; GST fusion ~67.8 kDa; also called GST-tagged MYB25; source: E. coli, purified (glutathione agarose beads), eluted; not shown: GST, N-terminal, kept

binding result (His:BPM5): binds
binding result (His:BPM3): binds
binding result (His:BPM1): binds
B2: GST:MYB1 (natural protein)
chain: not shown
notes: MYB1, Arabidopsis thaliana, At3g09230, 393 AA; cDNA; GST fusion ~69.7 kDa; Two GST constructs of MYB1 are described (pDEST15 by Gateway; pHB2-GST from the clone DKLAT3G09230); also called GST-tagged MYB1; source: E. coli, purified (glutathione agarose beads), eluted; not shown: GST, N-terminal, kept
